This is an account of results in the nanobody polyreactivity screen of Harvey et al. (2022).

This series can be described thus: yeast display, Sf9 membrane polyspecificity reagent, FACS + sequencing; frameworks hold sequencing errors. In a few lines: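 A nanobody's polyreactivity label depends on the gate it was sorted from. Yeast display cells were stained with 10% biotinylated, detergent-solubilized Sf9 membrane reagent for 1 hour at 4 °C, enriched on streptavidin microbeads and sorted by FACS. The low and high (top ~1%) gates were set on anti-HA fluorescence for expression and streptavidin fluorescence for reagent binding.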
As for “QVQLVESGGGLVQAGGSLRLSCAASGFIIVKYAMGWYRQAPGKERELVAAITRGGRTYYADSVKGRFTISRDNAKNTVYLQMNSLKPEDTAVYYCNKARFYDPWLGKYGYKYDYWGQGTQVTVSS”, the “polyreactivity (PSR sort gate)” value is reported as “high polyreactivity”.
For “QVQLVESGGGLVQAGGSLRLSCAASGFIIVRYAMGWYRQAPGKERELVAAITRSGGSTYYADSVKGRFTISRDNAKNTVYLQMNSLKPEDTAVYYCNAYRQGFTYARMDYWGQGTQVTVSS”, the “polyreactivity (PSR sort gate)” value is on record as “high polyreactivity”.
As for “QVQLVESGGGLVQAGGSLRLSCAASGFIIVRYAMGWYRQAPGKERELVASITKSGGSTYYADSVKGRFTISRDNAKNTVYLQMNSLKPEDTAVYYCAATVVSRTRYYYRGQRYDYWGQGTQVTVSS”, the entry is “high polyreactivity”; as for “QVQLVESGGGLVQAGGSLRLSCAASGFIIVYYAMGWYRQAPGKERELVAAISRSGGSTYYADSVKGRFTISRDNAKNTVYLQMNSLKPEDTAVYYCNAVNVLAPSRGRRYDYWGEGTQVTVSS”, “high polyreactivity”.
As for “QVQLVESGGGLVQAGGSLRLSCAASGFIIYGYVMGWYRQAPGKERELVAAINSSSGRTYYADSVKGRFTISRDNAKNTVYLQMKSLKPEDTAVYYCAAYYYGSYDGTPYDYWGQGTQVTVSS”, the entry is “low polyreactivity”; as for “QVQLVESGGGLVQAGGSLRLSCAASGFIIYKYAMGWYRQAPGKERELVAAISWSGGSTYYADSVKGRFTISRDNAKNTVYFQMNSLKPEDTAVYYCAARQWSQGWYDYWGQGTQVTVSS”, “high polyreactivity”.
As for “QVQLVESGGGLVQAGGSLRLSCAASGFILARYAMGWYRQAPGKERELVAVISSGGSSTFYADSVKGRFTISRDNAKNTVYLQMNSLKPEDTAVYYCAARYKSSKKVGFDYWGQGTQVTVSS”, the entry is “high polyreactivity”; as for “QVQLVESGGGLVQAGGSLRLSCAASGFILDNYAMGWYRQAPGKERELVAAISGSGGSTFYADSVKGRFTISRDNAKNTVYLQMNSLKSEDTAVYYCNRDRLLRQYDYWGQGTQVTVSS”, “high polyreactivity”.
Consider “QVQLVESGGGLVQAGGSLRLSCAASGFILDTYGMGWYRQAPGKERELVAAISQSDVSTYYADSVKGRFTISRYNAKNTVYLQMNSLKPEDTAVYYCAADRAGLRWFWQVLYDYWGQGTQVTVSS”, for which the “polyreactivity (PSR sort gate)” value is given as “low polyreactivity”.
The same measure for “QVQLVESGGGLVQAGGSLRLSCAASGFILGLNAMGWYRQAPGKEREFVADISWSGDSTYYADSVKGRFTISRDNAKNTVYLQMNSLKPEDTAVYYCAADPYYNWCYYYWGQGTQVTVSS”: “low polyreactivity”.
As for “QVQLVESGGGLVQAGGSLRLSCAASGFILGQYAMGWYRQAPGKERELVAAISGSSSTTYADCVKGRFTISRDNAKNTVYLQMNSLKPEDTAVYYCAAYYWYVTYFRREIAYEYWGQGTQVTVSS”, the entry is “low polyreactivity”; as for “QVQLVESGGGLVQAGGSLRLSCAASGFILGWYAMGWYRQAPGKERELVADISASGTRTYYADSVKGRFTISRDNAKNTVYLQMNSLKPEDTAVYYCNVYTKFVYAYDYWGQGTQVTLSS”, “high polyreactivity”; as for “QVQLVESGGGLVQAGGSLRLSCAASGFILGYNAMGWYRQAPGKERELVADITFSGGGTNYADSVKGRFTISRDNAKNTVYLQMNSLKPEDTAVYYCNAAAFSQLRVRYDYWGQGTQVTVSS”, “low polyreactivity”.
The same measure for “QVQLVESGGGLVQAGGSLRLSCAASGFILKYNAMGWYRQAPGKERELVAAISSNGGRTYYADSVKVRFTISRDNAKNTVYLQMKSLKPEDTAVDYCAAGRLQPVLGGYWGQGSQVTVSS”: “low polyreactivity”; for “QVQLVESGGGLVQAGGSLRLSCAASGFILKYYAMGWYRQAHGKERELVAAITVSGGSTYYADSVKGRFTISRDNAKNTFYLQMNSLKPEDTAVYYCNADYPRGGAGLLDYWGQGTQVTVSS”: “low polyreactivity”.
For the sequence “QVQLVESGGGLVQAGGSLRLSCAASGFILPHNAMGWYRQAPGKERELVAAISGSGGSTYYADSVKGRFTISRDNAKNTVYLQMNSLKPEDTAFYYCNADVWVYPYDYWGQGTQVTVSS”, the “polyreactivity (PSR sort gate)” value is given as “low polyreactivity”.
As for “QVQLVESGGGLVQAGGSLRLSCAASGFILRYYAMGWYRPAPGNERELVAAISSGGGTYYADSVKGRFTISRDNAKNTVYLQMNSLKPEDTAVYYCNKASTSYYRFNYWGQGTQVTVSS”, the entry is “high polyreactivity”.
The same measure for “QVQLVESGGGLVQAGGSLRLSCAASGFILSNYAMGWYRQAPGKERELVAAIRWSGGSTYYADSVKGRFTISRDYAKNTVYLQMNSLKPEDTAVYYCNKVRPFSWYGLDYWGQGTQVTVSS”: “high polyreactivity”.
As for “QVQLVESGGGLVQAGGSLRLSCAASGFILSPNTMGWYRPAPGKERELVAAISTDVSTYADSVKGRFTISRDNAKNTVYFQMNSLKPEDTAVYYCNADDFGYASYEYWGQGTQVTVSS”, the entry is “low polyreactivity”; as for “QVQLVESGGGLVQAGGSLRLSCAASGFILYDYAMGWYRQAPGKEREFVAAISWSGGRTYYADSVKGRFTISRDNAKNTVYLLLNSLNPEASAVYYCAVDAYRYWWTTYVSDFDYWGQGTQLTVSS”, “high polyreactivity”; as for “QVQLVESGGGLVQAGGSLRLSCAASGFILYSYAMGWSRQAPGKEREFVSVISRGGGRTYYADSVKGRFTISRDNAKNTVYLQMNSLKPEDTAVYYCAAGSRSPHWYTRELDYWGQGTQVTVSS”, “low polyreactivity”.
For the sequence “QVQLVESGGGLVQAGGSLRLSCAASGFILYYYAMGWSRQAPGKERELVAAISWSGDSTYYADSVKGRFTISRDNAKNTVYLQMNSLKPEDTAVYYCAATWQLTHRYYWGQGTQVTVSS”, the “polyreactivity (PSR sort gate)” value was “low polyreactivity”.
For the sequence “QVQLVESGGGLVQAGGSLRLSCAASGFISAGYAMGWYRQAPGKERELVAAITRTGSTNYADSVKGRFTISRDNAKNTVYLQMNSLKPEDTAVYYCAAGRRGSAGYYRQFGYGYWGQGTQVTVSS”, the “polyreactivity (PSR sort gate)” value was “high polyreactivity”.
The same measure for “QVQLVESGGGLVQAGGSLRLSCAASGFISAYNAMGWYRPAPGKERELVAAITSGATTKYADSVKGRFTISRDNAKNTVYFQMHSLKPEDTAVYYCAAAPKRRYYVHSGGAYGYWGQGTQVTVSS”: “high polyreactivity”; for “QVQLVESGGGLVQAGGSLRLSCAASGFISDVYAMGCYRQAPGKERELVAVITWRGSTYYAYSVKGRFTISRDNAKNTVYLQMNSLKPEDTAVYYCAAESQGDWAFDYWGQGTQVTVSS”: “low polyreactivity”; for “QVQLVESGGGLVQAGGSLRLSCAASGFISFAYAMGWYRQAPGKERELVAGISRSGDSTYYADSVKGRFTISRDNAKNTVYLQMNSLKPEDTAVYYCAVVTYRSKAHSSRNGKYYYWGQGTQVTVSS”: “low polyreactivity”.
Consider “QVQLVESGGGLVQAGGSLRLSCAASGFISFGNAMGWYIQAPGKERELVAGISRSGGSTYYADSVKGRFTISRDNAKNTVYLQMYSLKPEDTAVYYCATRVAIYPYRFDYWGQGTQVTVSS”, for which the “polyreactivity (PSR sort gate)” value was “high polyreactivity”.
As for “QVQLVESGGGLVQAGGSLRLSCAASGFISGYYTMRWYRQAPGKERELVAVINSGGSTYYADSVKGRFTISRDNAKNTVYFQMNSLKPEDTAVYYCAKLGGKYSRYYYWGHGTQVTVSS”, the “polyreactivity (PSR sort gate)” value is reported as “low polyreactivity”.
In the case of “QVQLVESGGGLVQAGGSLRLSCAASGFISPKYGMGWYRQAPGKERELVAAITPSDGSTSYADSVKGRFTISRDNAKNTVYLQMNSLKPEDTAVYYCNKSRYKSYSYDYWGQGTQVTVSS”, the “polyreactivity (PSR sort gate)” value is “high polyreactivity”.
As for “QVQLVESGGGLVQAGGSLRLSCAASGFISPSYAMGWYRPAPGKERELVAAIRSSDGSTYYADSVKGRFTISRDNAKNTVYLQMNSLKPEDTAVYYCAAGGSYYRDDYWGQGTQVTVSS”, the entry is “low polyreactivity”; as for “QVQLVESGGGLVQAGGSLRLSCAASGFISPSYDMGWYRQAPGKEWELVAAIRSSDGSTYYADSVKGRFTISRDNAKNTVYLQMNSLKPEDTAVYYCNKGVVLTLYVGMDYWGQGTQVTVSS”, “low polyreactivity”.
The same measure for “QVQLVESGGGLVQAGGSLRLSCAASGFISRKNAMGWYRQAPGKERELVAAISKSGGRTYYADSVKGRFTISRDNAKNTVYLQMNSLKPEDTAVYYCNRVPRDSWPYAWYDYWGQGTQVTVSS”: “high polyreactivity”; for “QVQLVESGGGLVQAGGSLRLSCAASGFISTPYAIGWYRQAPGKERELVAAIDISGGRTYYADSVKGRFTISRDNAKNTVYLQMNSLKPEDTAVYDCAAQLVSSYYAWYRTYYYWGQGTQVTVSS”: “high polyreactivity”; for “QVQLVESGGGLVQAGGSLRLSCAASGFISYTYMGWYRQAPGKERELVAGITGSGGSTYYADSVKGRFTISRDNAKNTVYLQMNILKPEDTAVYYCAAPRYLSYVRRYDYWGQGTQVTVSS”: “high polyreactivity”.
The same measure for “QVQLVESGGGLVQAGGSLRLSCAASGFISYYYAMGWYRQAPGKDWELVAVITSGGSTDYADSVKGRFTISRDHAKNTVYLQMNSLKPEDTAVYYCARDDPASHKRYWHDYWGQGTQVTVSS”: “low polyreactivity”; for “QVQLVESGGGLVQAGGSLRLSCAASGFISYYYAMGWYRQAPGKEREFVAAITSSGGSTRYADSVKGRFTISRDNAKNTVYLQMNSLKPEDTAVYYCAAGNPYFWPYDYWGQGTQVTVSS”: “low polyreactivity”; for “QVQLVESGGGLVQAGGSLRLSCAASGFIVDWYTRGWYRQAPGKERELVARISSDGSTTYADSVKGRFTISRDNAKNTVSVQMTSLKPEDTAVYYCAADVTYPGLKYIFDDWGQGTQVTVTS”: “low polyreactivity”.
In the case of “QVQLVESGGGLVQAGGSLRLSCAASGFIVRNYAMGWYSQAPGKERELVASISRGTSTNYADSVKGRFTISRDNAKNTVYLQMNSLKPEDTAVYYCNKRFYYHPFDYWGQGTQVTVSS”, the “polyreactivity (PSR sort gate)” value is on record as “high polyreactivity”.
As for “QVQLVESGGGLVQAGGSLRLSCAASGFIVWVYAMGWYRQAPGKERELVAAITSGGGSTYYADSVKGRFTISRDNAKNTVYLQMNSLKPEHTAVYYCNAVSWEGYDFDYWGQGTQVTVSS”, the entry is “high polyreactivity”; as for “QVQLVESGGGLVQAGGSLRLSCAASGFIYDYAMGWYRQAPGKEREFVARINWSGGSTYYADSVKGRFTISRDNAKNTVYLQMNSLKPEDTAVFYCATSGWAWRTSNPYEYWGQGTQVTVSS”, “low polyreactivity”.
Take “QVQLVESGGGLVQAGGSLRLSCAASGFIYWYAMGWSRQAPGKERELVAAITWSGGSTYADSVKGRFTISRDNAKNTVYLQMNSLKPEDTAVYYCAADKYSQWSSHTRVRYDYWGQGTQVTVSS”: the “polyreactivity (PSR sort gate)” value is reported as “low polyreactivity”.
